Measurements reported in US20250326828A1 (STAIDSON BEIJING BIOPHARMACEUTICALS, published 2025).
Where two headings read alike, the source gives them in different places. Each block holds one binder with its values, some of them ahead of it.

Legend:
human GDF15-his [1] = target: T1, human GDF15-his (human); test: cell-based or functional assay
T1 chain: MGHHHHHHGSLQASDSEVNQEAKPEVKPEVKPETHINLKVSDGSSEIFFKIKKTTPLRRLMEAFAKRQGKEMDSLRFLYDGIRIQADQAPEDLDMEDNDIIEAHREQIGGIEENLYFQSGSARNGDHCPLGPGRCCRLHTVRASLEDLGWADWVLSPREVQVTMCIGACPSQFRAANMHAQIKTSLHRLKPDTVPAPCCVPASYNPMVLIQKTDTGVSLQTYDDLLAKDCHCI

human GDF15-hFc [2] = target: T2, human GDF15-hFc (human); test: competition ELISA as in Example 2; GFRAL-his coated, antibody titrated against human GDF15-hFc
T2 construct: Recombinant hFc-tagged fusion protein expressed in 293F cells
T2 chain: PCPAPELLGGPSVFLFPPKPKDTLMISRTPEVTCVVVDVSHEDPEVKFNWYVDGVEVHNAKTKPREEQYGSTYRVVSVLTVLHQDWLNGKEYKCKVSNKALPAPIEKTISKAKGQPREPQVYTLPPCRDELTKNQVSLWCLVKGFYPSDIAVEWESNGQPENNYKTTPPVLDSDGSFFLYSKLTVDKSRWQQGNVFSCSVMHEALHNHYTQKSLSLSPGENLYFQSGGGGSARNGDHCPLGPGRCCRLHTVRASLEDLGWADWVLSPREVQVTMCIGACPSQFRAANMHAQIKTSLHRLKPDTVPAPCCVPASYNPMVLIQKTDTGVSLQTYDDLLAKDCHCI
How it was run: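 GFRAL-his coated at 100 ng/well, blocked with 1% BSA; antibodies (0–10 μg/ml) added with equal volume of human GDF15-hFc ([…]). Bound GDF15-hFc detected with anti-human IgG-HRP/TMB at OD450; IC₅₀ from binding curve as neutralizing activity.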

human GDF15-his [3] = target: T1, human GDF15-his; test: ELISA as in Example 2: plate coated with the antibody, graded human GDF15-his, anti-his-HRP, OD450; the sheet's x axis reads 'Log GDF15 antibody (nM)'
Protocol: (§1) ELISA binding assay: The purified monoclonal antibody was subjected to a binding assay with human GDF15-his protein. The binding assay was designed to characterize the binding activity of the anti-GDF15 antibody. Briefly, a 96-well plate was coated with anti-GDF15 antibody (200 ng/well) and incubated for 1 hour at 37° C. The plates were washed with PBST and then blocked for 1 hour at room temperature using 1% BSA. Then 100 µl/well of gradient-diluted human GDF15-his solution (dose range 0-50 μg/ml) was added into plates. After incubation, 100 μl of anti-his tag secondary antibody (anti-his-HRP (1:2000), Bersee, cat #BHR790) was added to each well. Finally, the TMB solution (100 μl/well) was added. 2M H₂SO₄ was used to stop the reaction. The OD450 was measured, and the binding curves were generated by PRISM software to analyze the affinity of candidate antibodies to human GDF15 antigen, and EC₅₀ value were calculated.

human GDF15-his [4] = target: T1, human GDF15-his; test: cell-based or functional assay
human GDF15-his [5] = target: T1, human GDF15-his; test: cell-based or functional assay
human GDF15-his [6] = target: T1, human GDF15-his; test: cell-based or functional assay
human GDF15-his [7] = target: T1, human GDF15-his; test: cell-based or functional assay
human GDF15-his [8] = target: T1, human GDF15-his; test: ELISA; antibody coated, human GDF15-his titrated, anti-his-HRP detection
Protocol: as §1

human GDF15-hFc [9] = target: T2, human GDF15-hFc; test: competition ELISA; GFRAL-his coated, antibody titrated against human GDF15-hFc, anti-human IgG-HRP detection
Protocol: The ELISA assay was performed to measure the inhibitory activity of anti-GDF15 antibodies in concentration gradients to block GDF15 binding to GFRAL receptor. IC₅₀ values were used as a measure for neutralizing activity of candidate molecules. Briefly, 96-well plates were coated with 100 ng/well of GFRAL-his protein (SEQ ID NO: 74), and incubated for 1 h at 37° C. The plates were washed with PBST and then blocked for 1 hour at 37° C. with 1% BSA. Gradient-diluted antibodies (dose range 0˜10 μg/ml) was added into each well, immediately followed by equal volume of human GDF15-hFc protein ([…]). After incubation and washing, 100 μl of anti-human IgG secondary antibody (goat anti-human IgG-HRP, Sigma, A8667) was added to each well. Finally, TMB solution (100 μl/well) was added. 2M H₂SO₄ was used to stop the reaction. The OD450 was measured and the binding curve was generated by PRISM to calculate the IC₅₀ value.

human GDF15-his [10] = target: T1, human GDF15-his; test: ELISA as in Example 2: plate coated with the antibody, graded human GDF15-his, anti-his-HRP, OD450; the sheet's x axis reads 'Log GDF15 Antibody (nM)'
How it was run: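 Plate coated with purified antibody (200 ng/well, 1 h, 37° C), BSA-blocked, then graded human GDF15-his (0-50 μg/ml) added. Bound antigen detected with anti-his-HRP (1:2000) and TMB, stopped with H₂SO₄, OD450 read. EC₅₀ derived from binding curves.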

human GDF15-his [11] = target: T1, human GDF15-his; test: as above
Protocol: as §1

IC50 (read off the curve), SRE-luciferase signal in 293T-GFRAL/RET-Luc cells with human GDF15-his (human GDF15-his [1]): ~0.08 nM
IC50 (human GDF15-hFc [2]): 1.33 nM
EC50 (read off the curve) (human GDF15-his [3]): ~200 nM
B1: hum_R37-17 (antibody, V domains shown)
VH: EVQLVESGGGLVKPGGSLRLSCAASGFSLSNYYMSWVRQAPGKGLEWVGMISFSGTTYATWAKGRFTISRDDSKNTVYLQINSLKTEDTAVYFCARVVYAGWTYPLGIWGQGTLVTVSS
VL: DIQMTQSPSSLSASVGDRVTITCQASQSISSVLSWYQQKPGKPPKLLIYEASILASGVPSRFSGSGSGTDFTLTISSLQPEDFATYYCQANYDVYNYGNPFGGGTKVEIK
notes: Tested in human IgG1 format

IC50, 293T-GFRAL/RET-Luc SRE luciferase reporter cells stimulated with human GDF15-his (15 ng/ml) (human GDF15-his [4]): 0.15 nM
IC50 (read off the curve), SRE-luciferase signal in 293T-GFRAL/RET-Luc cells with human GDF15-his (human GDF15-his [5]): ~0.2 nM
IC50 (read off the curve), SRE-luciferase signal in 293T-GFRAL/RET-Luc cells with human GDF15-his (human GDF15-his [6]): ~0.1 nM
IC50 (read off the curve), SRE-luciferase signal in 293T-GFRAL/RET-Luc cells with human GDF15-his (human GDF15-his [7]): ~0.05 nM
IC50 (read off the curve), SRE-luciferase signal in 293T-GFRAL/RET-Luc cells with human GDF15-his (human GDF15-his [1]): ~0.06 nM
EC50 (human GDF15-his [8]): 43.1 nM
IC50 (human GDF15-hFc [2]): 2.49 nM
IC50 (human GDF15-hFc [9]): 1.28 nM
EC50 (read off the curve) (human GDF15-his [10]): ~60 nM
EC50 (read off the curve) (human GDF15-his [11]): ~80 nM
EC50 (read off the curve) (human GDF15-his [3]): ~200 nM
B2: GDF-R37-rabIg1 (antibody, V domains shown)
VH: QQLKESGGRLVTPGTPLTLTCTASGFSLSNYYMSWVRQAPGEGLEWIGMISFSGTTYATWAKGRFTISKTSTTVDLKITSPTTEDTATYFCARVVYAGWTYPLGIWGPGTLVTISS
VL: AVVLTQTAASVSEPVGGTVTIKCQASQSISSVLSWYQQKPGQPPKALIYEASILASGVPSRFKGSGSGTDFTLTISDLECADAATYYCQANYDVYNYGNPFGGGTEVVVK
notes: Full-length rabbit antibody: rabbit IgG1 heavy constant and rabbit light constant; also called GDF15-R37-rabIg1
